From patent US20260184793A1 (TJ BIOPHARMA SHANGHAI, published 2026) come the findings set out here.

Assay [1] addresses T1, human PD-L1 expressed on cells (Raji cells overexpressing human PD-L1; CHO cells) (human, UniProt Q9NZQ7 19-290). The assay can be described thus: cell-based or functional assay.
Assay [2] has as its target T1, human PD-L1 expressed on cells (Raji …). The assay can be described thus: flow cytometry, PD-L1 expressed on CHO or Raji cells. For orientation: In flow cytometry, cells or beads pass a laser one at a time.
Assay [3] deals with T2, human His-PD-L1 (human, UniProt Q9NZQ7 19-238, limits assumed).
T2 construct: also called human PD-L1
The assay can be described thus: ELISA: plate coated with human His-PD-L1, antibody titrated, goat anti-human IgG Fc HRP, OD450. How it is done:
Briefly, 100 μl anti-PD-L1 antibody at different concentrations was incubated in each well of 96 well plate pre-coated with human His-PD-L1, and then goat anti-human IgG Fc HRP was added and analyzed by coloring reaction of HRP with its substrate.
(An ELISA detects its analyte on a solid surface through an enzyme-linked reagent.)

Assay [4] addresses T1, human PD-L1 expressed on cells (Raji …). The experiment in a line: flow cytometry on CHOK1-PDL1 cells (cell binding assay), GMFI.
The target is the same in assay [5]. The assay can be described thus: cell-based or functional assay. This is another data set of the same source.
For assay [6], the target named is T2, human His-PD-L1. The assay can be described thus: ELISA blocking assay: antibody titrated together with Biotin-PD-1 on coated human His-PD-L1, Streptavidin-HRP, OD450.
The target of assay [7] is T1, human PD-L1 expressed on cells (Raji …). The assay can be described thus: flow cytometry on CHOK1-PDL1 cells (cell binding assay), GMFI. This is another data set of the same source.
Assay [8] has as its target T2, human His-PD-L1. The experiment in a line: ELISA blocking assay: antibody titrated together with Biotin-PD-1 on coated human His-PD-L1, Streptavidin-HRP, OD450. This is another data set of the same source.
Assay [9] concerns the target T2, human His-PD-L1. Described as above. The source holds these as a separate data set.
Assay [10] deals with T2, human His-PD-L1. The assay is described as above. This is another data set of the same source.
The target in assay [11] is T1, human PD-L1 expressed on cells (Raji …). The experiment in a line: flow cytometry on Raji-PDL1 cells (cell binding assay), GMFI. As for the experimental part:
Binding capability of the anti-PD-L1 antibody of the present application was further evaluated by using Raji cells overexpressing human PD-L1. Briefly, 50 μl Raji cells overexpressing human PD-L1 were seeded into 96 well plate at a concentration of 2*10⁵ cells/well. […] Then the cells were washed twice by FACS buffer and supplemented with 100 μl PE-anti-hu IgG, followed by incubation on ice for 1 hour. After incubation, the cells in each well were collected and resuspended with 65 μl FACS buffer for analysis by flow cytometry.

Read-outs that look alike come from different tables or passages of the source.

T2 sequence (Q9NZQ7 19-238 limits assumed): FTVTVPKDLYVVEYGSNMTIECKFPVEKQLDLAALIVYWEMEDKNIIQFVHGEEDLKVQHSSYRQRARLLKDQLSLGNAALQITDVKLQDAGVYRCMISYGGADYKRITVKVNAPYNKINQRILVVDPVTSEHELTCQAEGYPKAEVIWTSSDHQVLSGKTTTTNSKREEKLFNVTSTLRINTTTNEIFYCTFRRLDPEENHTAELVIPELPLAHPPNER
T1 sequence (Q9NZQ7 19-290): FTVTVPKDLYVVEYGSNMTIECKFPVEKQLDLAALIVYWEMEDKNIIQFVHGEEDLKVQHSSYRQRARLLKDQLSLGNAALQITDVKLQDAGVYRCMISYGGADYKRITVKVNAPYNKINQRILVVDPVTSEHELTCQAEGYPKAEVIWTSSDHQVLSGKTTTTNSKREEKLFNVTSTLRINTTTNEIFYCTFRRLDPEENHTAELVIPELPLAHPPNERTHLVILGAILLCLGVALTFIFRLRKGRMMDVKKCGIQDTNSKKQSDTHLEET

B1: 112-VH47 (VHH)
VHH: EVQLVESGGGLVQPGGSLRLSCAASGFTFSSGTQFSDSKIDWYRQAPGKGLVWVAGIFSTGSTIYEDSVKGRFTISRDNAKNTGYLQMNSLRAEDTAVYYCRVIGRGILAWGQGTLVTVSS
With B1, the “EC50 (read off the curve), NFAT-luciferase signal (RLU), CHO-PDL-1 aAPC and Jurkat-PD-1-NFAT” value (“EC50 … CHO-PDL-1 aAPC and Jurkat-PD-1-NFAT” for short) in assay [1] was approximately 0.6 nM.

B2: R21560106 (VHH)
VHH: EVQLVESGGGLVQPGGSLRLSCAASGFTFSSGTQFSDSKADWYRQAPGKGLVWVAGIFSTGSTIYEDSVKGRFTISRDNAKNTGYLQMNSLRAEDTAVYYCRVIGRGTLAWGQGTLVTVSS
notes: ELISA detection with anti-human IgG Fc implies a human Fc part that is not described
For the molecule B2, the binding result (in [2]; in the assay with human His-PD-L1 [3]) was “binds” in each case.

B3: R21560102 (VHH)
VHH: EVQLVESGGGLVQPGGSLRLSCAASGFTFSSGTQFSDSKIDWYRQAPGKGLVWVAGIFQTGSTIYEDSVKGRFTISRDNAKNTGYLQMNSLRAEDTAVYYCRVIGRGILAWGQGTLVTVSS
notes: as for B2
B3: the “EC50 (read off the curve)” value in assay [4] is approximately 3 nM. Also, in assay [5], the “EC50 … CHO-PDL-1 aAPC and Jurkat-PD-1-NFAT” value was approximately 0.5 nM. For the same molecule, the “IC50 (read off the curve)” value with human His-PD-L1 [6] is approximately 0.8 nM.

B4: R21560103 (VHH)
VHH: EVQLVESGGGLVQPGGSLRLSCAASGFTFSSGTQFSDSKIDWYRQAPGKGLVWVAGIFSTGSTIYEDSVKGRFTISRDNAKNTGYLQMNSLRAEDTAVYYCRVIGIGILAWGQGTLVTVSS
notes: as for B2
With B4, the binding result (in assay [2]; with human His-PD-L1 [3]) was “binds” in each case.

B5: 93-VH-6 (VHH)
VHH: EVQLVESGGGLVQPGGSLRLSCAASGFTFTFRHYVMGWFRQAPGKEREFVAAISWSGSGSYYADSVKGRFTISRDNSKNTVYLQMNSLRAEDTAVYYCAADMTTRMSQASREYDYWGQGTLVTVSS
Regarding B5, in [1], the “EC50 … CHO-PDL-1 aAPC and Jurkat-PD-1-NFAT” value was approximately 0.7 nM.

B6: R21448513 (VHH)
VHH: EVQLVESGGGLVQPGGSLRLSCAASGFTFTFYHYVMGWFRQAPGKEREFVADISWSGSGSYYADSVKGRFTISRDNSKNTVYLQMNSLRAEDTAVYYCAADMTTEMSQASREYDYWGQGTLVTVSS
notes: as for B2
B6: the binding result (in assay [2]; in the assay with human His-PD-L1 [3]) was “binds” in each case.

B7: R21448505 (VHH)
VHH: EVQLVESGGGLVQPGGSLRLSCAASGFTFTFRHYVMGWFRQAPGKEREFVAAISWSGSGSYYADSVKGRFTISRDNSKNTVYLQMNSLRAEDTAVYYCAADMTTRMSQDSREYDYWGQGTLVTVSS
notes: as for B2
With B7, the half-maximal effective concentration (EC50 (read off the curve)) in [7] was approximately 4 nM.

B8: R21448515 (VHH)
VHH: EVQLVESGGGLVQPGGSLRLSCAASGFTFTFYHYVMGWFRQAPGKEREFVADISWSGSGSYYADSVKGRFTISRDNSKNTVYLQMNSLRAEDTAVYYCAADMTTRMSQASDEYDYWGQGTLVTVSS
notes: as for B2
On to B8, for which the “IC50 (read off the curve)” value with human His-PD-L1 [8] is approximately 0.8 nM.

B9: R21448509 (VHH)
VHH: EVQLVESGGGLVQPGGSLRLSCAASGFTFTFYHYVMGWFRQAPGKEREFVAAISWSGSGSYYADSVKGRFTISRDNSKNTVYLQMNSLRAEDTAVYYCAADMTTRMSQASDEYDYWGQGTLVTVSS
notes: as for B2
Regarding B9, the binding result (in [7]; in the assay with human His-PD-L1 [9]) was “binds” each time.

B10: R21448506 (VHH)
VHH: EVQLVESGGGLVQPGGSLRLSCAASGFTFTFRHYVMGWFRQAPGKEREFVAAISWSGSGSYYADSVKGRFTISRDNSKNTVYLQMNSLRAEDTAVYYCAADMTTRMSQASDEYDYWGQGTLVTVSS
notes: as for B2
On to B10, for which the binding result (in [7]; in the assay with human His-PD-L1 [3]) was “binds” each time.

B11: R21448516 (VHH)
VHH: EVQLVESGGGLVQPGGSLRLSCAASGFTFTFYHYVMGWFRQAPGKEREFVADISWSGSGSYYADSVKGRFTISRDNSKNTVYLQMNSLRAEDTAVYYCAADMTTEMSQDSDEYDYWGQGTLVTVSS
notes: as for B2
In the case of B11, in the assay with human His-PD-L1 [10], the “IC50 (read off the curve)” value is approximately 0.7 nM. In addition, the “EC50 (read off the curve)” value in assay [11] is approximately 0.4 nM.

B12: R21448518 (VHH)
VHH: EVQLVESGGGLVQPGGSLRLSCAASGFTFTFRHYVMGWFRQAPGKEREFVAAISWSGSGSYYADSVKGRFTISRDNSKNTVYLQMNSLRAEDTAVYYCAADMTTEMSQASDEYDYWGQGTLVTVSS
notes: as for B2
B12: the binding result (in assay [2]; with human His-PD-L1 [3]) was “binds” in each case.

B13: R21448517 (VHH)
VHH: EVQLVESGGGLVQPGGSLRLSCAASGFTFTFRHYVMGWFRQAPGKEREFVAAISWSGSGSYYADSVKGRFTISRDNSKNTVYLQMNSLRAEDTAVYYCAADMTTEMSQDSREYDYWGQGTLVTVSS
notes: as for B2
With B13, the binding result (in assay [2]; with human His-PD-L1 [3]) was “binds” each time.

B14: R21448504 (VHH)
VHH: EVQLVESGGGLVQPGGSLRLSCAASGFTFTFRHYVMGWFRQAPGKEREFVAAISWSGSGSYYADSVKGRFTISRDNSKNTVYLQMNSLRAEDTAVYYCAADMTTEMSQASREYDYWGQGTLVTVSS
notes: as for B2
Consider B14, for which the binding result (in [2]; in the assay with human His-PD-L1 [3]) was “binds” each time.

B15: R21448507 (VHH)
VHH: EVQLVESGGGLVQPGGSLRLSCAASGFTFTFYHYVMGWFRQAPGKEREFVAAISWSGSGSYYADSVKGRFTISRDNSKNTVYLQMNSLRAEDTAVYYCAADMTTEMSQASREYDYWGQGTLVTVSS
notes: as for B2
Regarding B15, the binding result (in [2]; with human His-PD-L1 [3]) was “binds” each time.

B16: R21448508 (VHH)
VHH: EVQLVESGGGLVQPGGSLRLSCAASGFTFTFYHYVMGWFRQAPGKEREFVAAISWSGSGSYYADSVKGRFTISRDNSKNTVYLQMNSLRAEDTAVYYCAADMTTRMSQDSREYDYWGQGTLVTVSS
notes: as for B2
For the molecule B16, the binding result (in assay [2]; with human His-PD-L1 [3]) was “binds” in each case.

B17: R21448519 (VHH)
VHH: EVQLVESGGGLVQPGGSLRLSCAASGFTFTFRHYVMGWFRQAPGKEREFVAAISWSGSGSYYADSVKGRFTISRDNSKNTVYLQMNSLRAEDTAVYYCAADMTTRMSQDSDEYDYWGQGTLVTVSS
notes: as for B2
With B17, the “IC50 (read off the curve)” value with human His-PD-L1 [8] was approximately 0.8 nM.

B18: R21448502 (VHH)
VHH: EVQLVESGGGLVQPGGSLRLSCAASGFTFTFYHYVMGWFRQAPGKEREFVAAISWSGSGSYYADSVKGRFTISRDNSKNTVYLQMNSLRAEDTAVYYCAADMTTRMSQASREYDYWGQGTLVTVSS
notes: as for B2
Regarding B18, the binding result (in [2]; in the assay with human His-PD-L1 [3]) was “binds” throughout.

B19: R21448514 (VHH)
VHH: EVQLVESGGGLVQPGGSLRLSCAASGFTFTFYHYVMGWFRQAPGKEREFVADISWSGSGSYYADSVKGRFTISRDNSKNTVYLQMNSLRAEDTAVYYCAADMTTRMSQDSREYDYWGQGTLVTVSS
notes: as for B2
Turning to B19, the “IC50 (read off the curve)” value in the assay with human His-PD-L1 [8] is approximately 0.6 nM.

As a reminder, the EC50 (read off the curve) is the concentration needed to bring the measured effect to its halfway point. Read a low EC50 (read off the curve) as greater potency.
